The results in this text go back to publication PMC3102601.

What all share (assay): purified protein
Substrate in data set [1]: O=CCP(=O)(O)O
The conditions noted are these: Zn2+; 25.0 °C.

Substrate in data set [2]: O=[N+]([O-])c1ccc(OP(=O)(O)O)cc1
Conditions: Zn2+; 25.0 °C.

Substrate in data set [3]: Nc1ncnc2c1ncn2[C@@H]1O[C@H](COP(=O)(O)OP(=O)(O)OP(=O)(O)O)[C@@H](O)[C@H]1O
Format: biochemical, Pseudomonas fluorescens. The conditions noted are these: Zn2+ active site; phosphoryl transfer to Thr64; 25.0 °C.

B1: phosphonoacetate hydrolase (PAc hydrolase) (Pseudomonas fluorescens) (protein)
chain: TQLISVNSRSYRLSSAPTIVICVDGCEQEYINQAIQAGQAPFLAELTGFGTVLTGDCVVPSFTNPNNLSIVTGAPPSVHGICGNFFFDQETQEEVLMNDAKYLRAPTILAEMAKAGQLVAVVTAKDKLRNLLGHQLKGICFSAEKADQVNLEEHGVENILARVGMPVPSVYSADLSEFVFAAGLSLLTNERPDFMYLSTTDYVQHKHAPGTPEANAFYAMMDSYFKRYHEQGAIVAITADHGMNAKTDAIGRPNILFLQDLLDAQYGAQRTRVLLPITDPYVVHHGALGSYATVYLRDAVPQRDAIDFLAGIAGVEAVLTRSQACQRFELPEDRIGDLVVLGERLTVLGSAADKHDLSGLTVPLRSHGGVSEQKVPLIFNRKLVGLDSPGRLRNFDIIDLALNHLA
For the protein B1, the Km (as a rule, the concentration of substrate that gives half-maximal velocity) in “purified protein [1]” amounted to 330 ± 10 µM; in the data set “purified protein [2]” it was 14000 ± 200 µM; in “purified protein [3]” it was 1000 µM. In addition, the values for the kcat in the data set “purified protein [1]”, in “purified protein [2]” and in the data set “purified protein [3]” were 0.027 ± 0.01 s⁻¹, 0.22 s⁻¹ and 0.0002 s⁻¹, respectively. In addition, the kcat/Km (as a rule, the second-order rate constant that governs catalysis at low substrate concentration) is 80 M⁻¹ s⁻¹ in the data set “purified protein [1]”, 20 M⁻¹ s⁻¹ in “purified protein [2]” and 0.2 M⁻¹ s⁻¹ in the data set “purified protein [3]”.
